For experiment [1], the target named is basigin ectodomain (human). As to the kind of experiment: MST; Alexa Fluor 488-labelled BSG^ecto held at 0.25 µM; PfRH5 or PfRCR titrated 8 µM to 3.91 nM; 20 mM Tris pH 8.0, 200 mM NaCl, 1 mg/ml salmon sperm DNA, 0.01% Tween-20; 25 °C.
Experiment [2] addresses full-length human basigin (human). The experiment is described as follows: MST; Alexa Fluor 488-labelled full-length basigin held at 0.1 µM; PfRH5 or PfRCR titrated 2 µM to 0.12 nM; 20 mM Tris pH 8.0, 200 mM NaCl, 1 mg/ml salmon sperm DNA, 0.02% DDM; 25 °C.

As a reminder, the Kd is the equilibrium constant for the complex coming apart.

Take PfRH5 (natural protein): the Kd in experiment [1] was 190 nM; in experiment [2], 120 nM.

The values above are taken from paper PMC10794152.
